The target in assay [1] is T1, TNFR2 (as used in the surface plasmon resonance assays) (UniProt P20333 23-257, limits assumed).
T1 sequence (looked up): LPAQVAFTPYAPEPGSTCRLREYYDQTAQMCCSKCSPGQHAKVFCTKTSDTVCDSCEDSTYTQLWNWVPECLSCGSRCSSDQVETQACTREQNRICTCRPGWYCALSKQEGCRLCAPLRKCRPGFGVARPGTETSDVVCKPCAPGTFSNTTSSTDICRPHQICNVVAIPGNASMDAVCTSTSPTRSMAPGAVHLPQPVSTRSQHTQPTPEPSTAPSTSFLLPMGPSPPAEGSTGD
As to the kind of experiment: surface plasmon resonance, KD against that of TNFα/TNFR2.

The target in assay [2] is T2, TNFR1 (as used in the surface plasmon resonance assays) (UniProt P19438 30-211, limits assumed).
T2 sequence (looked up): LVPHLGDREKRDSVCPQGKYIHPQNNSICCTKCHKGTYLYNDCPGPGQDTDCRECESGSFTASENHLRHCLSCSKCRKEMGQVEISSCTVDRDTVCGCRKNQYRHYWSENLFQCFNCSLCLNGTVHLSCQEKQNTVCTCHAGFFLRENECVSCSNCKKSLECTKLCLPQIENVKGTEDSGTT
As to the kind of experiment: surface plasmon resonance, KD against that of TNFα/TNFR1.

Assay [3] deals with T2, TNFR1 (as used in the surface plasmon …). As to the kind of experiment: surface plasmon resonance.
Assay [4] has as its target T1, TNFR2 (as used in the surface plasmon …). As to the kind of experiment: surface plasmon resonance.
The target in assay [5] is T3, Atsttrin (yeast two-hybrid construct in pDBleu) (human, UniProt P04386 1-147 (Saccharomyces cerevisiae entry), limits assumed).
T3 construct: domain: Gal4 DBD; also called ½A+P3+P4+½C+P5+½F; ½F-P3-P4-½A-P5-½C
As to the kind of experiment: yeast two-hybrid, β-galactosidase assay.

The target in assay [6] is T2, TNFR1 (as used in the surface plasmon …). As to the kind of experiment: surface plasmon resonance (SensiQ Pioneer, FastStep kinetic assay).

B1: Atsttrin (recombinant, released from GST-Atsttrin by factor Xa) (peptide)
chain: PQASCCEDRVHCCPHGAFCDLVHTRCITPTGTHPLAKKLPAQRTNRAVALSSSASSKENATTDLLTKLPAHTVGDVKCDMEVSCPDGYTCCRLQSGAWPWCEQGPHQVPWMEKAPAHLSLPDPQALKRDVPCDNVSSCPSSDTCCQLTSGEWGCCPIP
notes: Expressed in bacteria as GST fusion, cleaved with factor Xa; also called Antagonist of TNF/TNFR Signaling via Targeting TNF Receptors; purified Atsttrin
Turning to B1, the “fold higher binding affinity than TNFα” value in assay [1] is roughly 9 fold. For the same molecule, the “fold lower affinity than TNFα” value in assay [2] was roughly 18 fold. Further, the dissociation constant (Kd) turned out to be 160 nM in assay [3] and 85.9 nM in assay [4].

B2: RANK (yeast two-hybrid plasmid of Example 9) (receptor, UniProt Q9Y6Q6 30-212, looked up)
chain: IAPPCTSEKHYEHLGRCCNKCEPGKYMSSKCTTTSDSVCLPCGPDEYLDSWNEEDKCLLHKVCDTGKALVAVVAGNSTTPRRCACTAGYHWSQDCECCRRNTECAPGLGAQHPLQLNKDTVCKPCLAGYFSDAFSSTDKCRPWTNCTFLGKRVEHHGTEKSDAVCSSSLPARKPPNEPHVYLP
As for B2, the binding result in assay [5] is on record as “no binding”.

B3: FAS (yeast two-hybrid plasmid of Example 9) (receptor, UniProt P25445 26-173, looked up)
chain: QVTDINSKGLELRKTVTTVETQNLEGLHHDGQFCHKPCPPGERKARDCTVNGDEPDCVPCQEGKEYTDKAHFSSKCRRCRLCDEGHGLEVEINCTRTQNTKCRCKPNFFCNSTVCEHCDPCTKCEHGIIKECTLTSNTKCKEEGSRSN
Consider B3, for which, in assay [5], the binding result is listed as “no binding”.

B4: recombinant GEP (granulin/epithelin precursor) (ligand)
chain: TRCPDGQFCPVACCLDPGGASYSCCRPLLDKWPTTLSRHLGGPCQVDAHCSAGHSCIFTVSGTSSCCPFPEAVACGDGHHCCPRGFHCSADGRSCFQRSGNNSVGAIQCPDSQFECPDFSTCCVMVDGSWGCCPMPQASCCEDRVHCCPHGAFCDLVHTRCITPTGTHPLAKKLPAQRTNRAVALSSSVMCPDARSRCPDGSTCCELPSGKYGCCPMPNATCCSDHLHCCPQDTVCDLIQSKCLSKENATTDLLTKLPAHTVGDVKCDMEVSCPDGYTCCRLQSGAWGCCPFTQAVCCEDHIHCCPAGFTCDTQKGTCEQGPHQVPWMEKAPAHLSLPDPQALKRDVPCDNVSSCPSSDTCCQLTSGEWGCCPIPEAVCCSDHQHCCPQRYTCVAEGQCQRGSEIVAGLEKMPARRGSLSHPRDIGCDQHTSCPVGGTCCPSQGGSWACCQLPHAVCCEDRQHCCPAGYTCNVKARSCEKEVVSAQPATFLARSPHVGVKDVECGEGHFCHDNQTCCRDNRQGWACCPYAQGVCCADRRHCCPAGFRCARRGTKCLRREAPRWDAPLRDPALRQLL
notes: also called purified GEP; PGRN
B4: in assay [6], the affinity, expressed as Kd, was 1.58 nM; the koff stood at 0.000814 s⁻¹; the kon is 516000 M⁻¹ s⁻¹.

The record behind these values is patent US20130157945A1 (NEW YORK UNIVERSITY SCHOOL OF MEDICINE, published 2013).
